From patent US9260500B2, “Peptide and use thereof” (Takeda Pharmaceutical Company Limited, priority 2009, dated 2016)
Starred links: 1 amine or outer side, 2 acyl side, 3 side chain; linkers in the order of their positions; H or OH if unused. Non-standard residues stand in square brackets, D forms with d. Tyr(Me) = O-methyltyrosine, COc1ccc(C[C@H](N[*:1])C(=O)[*:2])cc1; Phe(3-Me) = Cc1cccc(C[C@H](N)C(=O)O)c1; Phe(4-F) = N[C@@H](Cc1ccc(F)cc1)C(=O)O; 1Nal = N[C@@H](Cc1cccc2ccccc12)C(=O)O; Phe(2-Me) = Cc1ccccc1C[C@H](N)C(=O)O; 4Pal = N[C@@H](Cc1ccncc1)C(=O)O; Cha = N[C@@H](CC1CCCCC1)C(=O)O; dIva = CC[C@@](C)(N)C(=O)O; Iva = CC[C@](C)(N)C(=O)O; NMeA = CN[C@@H](C)C(=O)O; Aib = CC(C)(N)C(=O)O; Sar = CNCC(=O)O

Assays:
[1] = molecular target: T1, human Y2 receptor (Homo sapiens, UniProt P49146); assay: Human Y2 Receptor G Protein Binding Assay (GBA), [35S]GTPγS; assay type: biochemical; details: EC50 of test compound/EC50 of PYY(3-36) (PYY3-36 taken as 1), hY2R/CHO membrane fraction
T1 construct: expressed in transfected cells; membrane fraction
T1 sequence (P49146 1-381): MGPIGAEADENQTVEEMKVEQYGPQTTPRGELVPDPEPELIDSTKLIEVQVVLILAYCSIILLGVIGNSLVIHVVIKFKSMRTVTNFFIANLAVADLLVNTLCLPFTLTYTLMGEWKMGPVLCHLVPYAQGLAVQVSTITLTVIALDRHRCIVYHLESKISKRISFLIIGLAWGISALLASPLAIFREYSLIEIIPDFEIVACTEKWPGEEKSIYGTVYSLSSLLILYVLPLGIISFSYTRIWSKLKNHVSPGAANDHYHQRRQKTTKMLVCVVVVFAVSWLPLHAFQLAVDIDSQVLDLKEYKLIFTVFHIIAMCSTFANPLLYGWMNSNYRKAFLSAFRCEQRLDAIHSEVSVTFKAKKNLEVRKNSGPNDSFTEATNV
Outline: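 Agonism measured as [35S]GTPγS binding, read by GF/C filtration and scintillation counting after 120 min at room temperature, using human Y2 membranes at 1 μg protein/mL in pH 7.4 Tris/MgCl2/NaCl/GDP buffer. Compound serially diluted 100 μM–1 nM; EC50 normalized to PYY(3-36) (ratio = compound/PYY).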

[2] = molecular target: T1, human Y2 receptor; assay: Receptor Binding Assay (RBA) for Human Y2, [125I]-PYY displacement on hY2R/CHO membrane fraction; details: IC50 of test compound/IC50 of PYY(3-36) (PYY(3-36) taken as 1)
Outline: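 hY2R stably expressed in CHO/dhfr− cells; membrane fraction prepared from cells disrupted in 10 mM NaHCO3, 5 mM EDTA buffer with protease inhibitors. Binding read as displacement of [125I]-PYY.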

| Substance | GBA EC50 Ratio [1] | RBA IC50 Ratio [2] |
| --- | --- | --- |
| Ac-[D-Pro24, Pya(4)26, Cha27,36, Aib28, Lys30, Iva31]-PYY(23-36) (Ac-S[dP]R[4Pal][Cha][Aib]NK[Iva]TRQR[Cha]-NH2; SMILES CC[C@](C)(NC(=O)[C@H](CCCCN)NC(=O)[C@H](CC(N)=O)NC(=O)C(C)(C)NC(=O)[C@H](CC1CCCCC1)NC(=O)[C@H](Cc1ccncc1)NC(=O)[C@H](CCCNC(=N)N)NC(=O)[C@H]1CCCN1C(=O)[C@H](CO)NC(C)=O)C(=O)N[C@H](C(=O)N[C@@H](CCCNC(=N)N)C(=O)N[C@@H](CCC(N)=O)C(=O)N[C@@H](CCCNC(=N)N)C(=O)N[C@@H](CC1CCCCC1)C(N)=O)[C@@H](C)O) [compound No. 231] | 2.1 | 0.85 |
| Ac-[D-Pro24, Pya(4)26, Cha27,36, D-Iva28,31, Lys30]-PYY(23-36) (Ac-S[dP]R[4Pal][Cha][dIva]NK[dIva]TRQR[Cha]-NH2; SMILES CC[C@@](C)(NC(=O)[C@H](CC1CCCCC1)NC(=O)[C@H](Cc1ccncc1)NC(=O)[C@H](CCCNC(=N)N)NC(=O)[C@H]1CCCN1C(=O)[C@H](CO)NC(C)=O)C(=O)N[C@@H](CC(N)=O)C(=O)N[C@@H](CCCCN)C(=O)N[C@](C)(CC)C(=O)N[C@H](C(=O)N[C@@H](CCCNC(=N)N)C(=O)N[C@@H](CCC(N)=O)C(=O)N[C@@H](CCCNC(=N)N)C(=O)N[C@@H](CC1CCCCC1)C(N)=O)[C@@H](C)O) [compound No. 247] | 1.6 | 0.70 |
| Ac-[D-Pro24, Pya(4)26, Cha27,36, D-Iva28, Lys30, Aib31]-PYY(23-36) (Ac-S[dP]R[4Pal][Cha][dIva]NK[Aib]TRQR[Cha]-NH2; SMILES CC[C@@](C)(NC(=O)[C@H](CC1CCCCC1)NC(=O)[C@H](Cc1ccncc1)NC(=O)[C@H](CCCNC(=N)N)NC(=O)[C@H]1CCCN1C(=O)[C@H](CO)NC(C)=O)C(=O)N[C@@H](CC(N)=O)C(=O)N[C@@H](CCCCN)C(=O)NC(C)(C)C(=O)N[C@H](C(=O)N[C@@H](CCCNC(=N)N)C(=O)N[C@@H](CCC(N)=O)C(=O)N[C@@H](CCCNC(=N)N)C(=O)N[C@@H](CC1CCCCC1)C(N)=O)[C@@H](C)O) [compound No. 234] | 2.6 | 1.7 |
| Ac-[D-Pro24, Pya(4)26, Cha27,36, D-Iva28, Lys30, Iva31]-PYY(23-36) (Ac-S[dP]R[4Pal][Cha][dIva]NK[Iva]TRQR[Cha]-NH2; SMILES CC[C@@](C)(NC(=O)[C@H](CC1CCCCC1)NC(=O)[C@H](Cc1ccncc1)NC(=O)[C@H](CCCNC(=N)N)NC(=O)[C@H]1CCCN1C(=O)[C@H](CO)NC(C)=O)C(=O)N[C@@H](CC(N)=O)C(=O)N[C@@H](CCCCN)C(=O)N[C@@](C)(CC)C(=O)N[C@H](C(=O)N[C@@H](CCCNC(=N)N)C(=O)N[C@@H](CCC(N)=O)C(=O)N[C@@H](CCCNC(=N)N)C(=O)N[C@@H](CC1CCCCC1)C(N)=O)[C@@H](C)O) [compound No. 248] | 1.1 | 3.4 |
| Ac-[D-Pro24, Pya(4)26, Phe(4F)27, Aib28,31, Lys30, Cha36]-PYY(23-36) (Ac-S[dP]R[4Pal][Phe(4-F)][Aib]NK[Aib]TRQR[Cha]-NH2; SMILES CC(=O)N[C@@H](CO)C(=O)N1CCC[C@@H]1C(=O)N[C@@H](CCCNC(=N)N)C(=O)N[C@@H](Cc1ccncc1)C(=O)N[C@@H](Cc1ccc(F)cc1)C(=O)NC(C)(C)C(=O)N[C@@H](CC(N)=O)C(=O)N[C@@H](CCCCN)C(=O)NC(C)(C)C(=O)N[C@H](C(=O)N[C@@H](CCCNC(=N)N)C(=O)N[C@@H](CCC(N)=O)C(=O)N[C@@H](CCCNC(=N)N)C(=O)N[C@@H](CC1CCCCC1)C(N)=O)[C@@H](C)O) [compound No. 305] | 3.9 | 10 |
| Ac-[D-Pro24, Tyr(Me)26, Cha27,36, Aib28,31, Lys30]-PYY(23-36) (Ac-S[dP]R[Tyr(Me)][Cha][Aib]NK[Aib]TRQR[Cha]-NH2; SMILES COc1ccc(C[C@H](NC(=O)[C@H](CCCNC(=N)N)NC(=O)[C@H]2CCCN2C(=O)[C@H](CO)NC(C)=O)C(=O)N[C@@H](CC2CCCCC2)C(=O)NC(C)(C)C(=O)N[C@@H](CC(N)=O)C(=O)N[C@@H](CCCCN)C(=O)NC(C)(C)C(=O)N[C@H](C(=O)N[C@@H](CCCNC(=N)N)C(=O)N[C@@H](CCC(N)=O)C(=O)N[C@@H](CCCNC(=N)N)C(=O)N[C@@H](CC2CCCCC2)C(N)=O)[C@@H](C)O)cc1) [compound No. 348] | 1.4 | 0.88 |

The next lines start with the values.

| GBA EC50 Ratio [1] | RBA IC50 Ratio [2] | Substance |
| --- | --- | --- |
| 1 | 0.31 | Ac-[D-Pro24, Pya(4)26, Cha27,36, Iva28,31, Lys30]-PYY(23-36) (Ac-S[dP]R[4Pal][Cha][Iva]NK[Iva]TRQR[Cha]-NH2; SMILES CC[C@](C)(NC(=O)[C@H](CC1CCCCC1)NC(=O)[C@H](Cc1ccncc1)NC(=O)[C@H](CCCNC(=N)N)NC(=O)[C@H]1CCCN1C(=O)[C@H](CO)NC(C)=O)C(=O)N[C@@H](CC(N)=O)C(=O)N[C@@H](CCCCN)C(=O)N[C@@](C)(CC)C(=O)N[C@H](C(=O)N[C@@H](CCCNC(=N)N)C(=O)N[C@@H](CCC(N)=O)C(=O)N[C@@H](CCCNC(=N)N)C(=O)N[C@@H](CC1CCCCC1)C(N)=O)[C@@H](C)O) [compound No. 246] |
| 0.98 | 1.0 | Ac-[D-Pro24, Pya(4)26, Cha27, Aib28,31, Lys30, Phe(2Me)36]-PYY(23-36) (Ac-S[dP]R[4Pal][Cha][Aib]NK[Aib]TRQR[Phe(2-Me)]-NH2; SMILES CC(=O)N[C@@H](CO)C(=O)N1CCC[C@@H]1C(=O)N[C@@H](CCCNC(=N)N)C(=O)N[C@@H](Cc1ccncc1)C(=O)N[C@@H](CC1CCCCC1)C(=O)NC(C)(C)C(=O)N[C@@H](CC(N)=O)C(=O)N[C@@H](CCCCN)C(=O)NC(C)(C)C(=O)N[C@H](C(=O)N[C@@H](CCCNC(=N)N)C(=O)N[C@@H](CCC(N)=O)C(=O)N[C@@H](CCCNC(=N)N)C(=O)N[C@@H](Cc1ccccc1C)C(N)=O)[C@@H](C)O) [compound No. 257] |
| 1.2 | 0.91 | Ac-[D-Pro24, Pya(4)26, Cha27, Aib28,31, Lys30, Phe(3Me)36]-PYY(23-36) (Ac-S[dP]R[4Pal][Cha][Aib]NK[Aib]TRQR[Phe(3-Me)]-NH2; SMILES CC(=O)N[C@@H](CO)C(=O)N1CCC[C@@H]1C(=O)N[C@@H](CCCNC(=N)N)C(=O)N[C@@H](Cc1ccncc1)C(=O)N[C@@H](CC1CCCCC1)C(=O)NC(C)(C)C(=O)N[C@@H](CC(N)=O)C(=O)N[C@@H](CCCCN)C(=O)NC(C)(C)C(=O)N[C@H](C(=O)N[C@@H](CCCNC(=N)N)C(=O)N[C@@H](CCC(N)=O)C(=O)N[C@@H](CCCNC(=N)N)C(=O)N[C@@H](Cc1cccc(C)c1)C(N)=O)[C@@H](C)O) [compound No. 260] |
| 1.7 | 2.9 | Ac-[D-Pro24, Pya(4)26, Nal(1)27, Aib28,31, Lys30, Cha36]-PYY(23-36) (Ac-S[dP]R[4Pal][1Nal][Aib]NK[Aib]TRQR[Cha]-NH2; SMILES CC(=O)N[C@@H](CO)C(=O)N1CCC[C@@H]1C(=O)N[C@@H](CCCNC(=N)N)C(=O)N[C@@H](Cc1ccncc1)C(=O)N[C@@H](Cc1cccc2ccccc12)C(=O)NC(C)(C)C(=O)N[C@@H](CC(N)=O)C(=O)N[C@@H](CCCCN)C(=O)NC(C)(C)C(=O)N[C@H](C(=O)N[C@@H](CCCNC(=N)N)C(=O)N[C@@H](CCC(N)=O)C(=O)N[C@@H](CCCNC(=N)N)C(=O)N[C@@H](CC1CCCCC1)C(N)=O)[C@@H](C)O) [compound No. 306] |
| 5.1 | 6.1 | Ac-[D-Ser23, MeAla24, Cha27,28,36, Aib31]-PYY(23-36) (Ac-[dS][NMeA]RH[Cha][Cha]NL[Aib]TRQR[Cha]-NH2; SMILES CC(=O)N[C@H](CO)C(=O)N(C)[C@@H](C)C(=O)N[C@@H](CCCNC(=N)N)C(=O)N[C@@H](Cc1c[nH]cn1)C(=O)N[C@@H](CC1CCCCC1)C(=O)N[C@@H](CC1CCCCC1)C(=O)N[C@@H](CC(N)=O)C(=O)N[C@@H](CC(C)C)C(=O)NC(C)(C)C(=O)N[C@H](C(=O)N[C@@H](CCCNC(=N)N)C(=O)N[C@@H](CCC(N)=O)C(=O)N[C@@H](CCCNC(=N)N)C(=O)N[C@@H](CC1CCCCC1)C(N)=O)[C@@H](C)O) [compound No. 109] |
| 5.3 | 6.6 | Ac-[D-Ser23, Sar24, Cha27,28,36, Aib31]-PYY(23-36) (Ac-[dS][Sar]RH[Cha][Cha]NL[Aib]TRQR[Cha]-NH2; SMILES CC(=O)N[C@H](CO)C(=O)N(C)CC(=O)N[C@@H](CCCNC(=N)N)C(=O)N[C@@H](Cc1c[nH]cn1)C(=O)N[C@@H](CC1CCCCC1)C(=O)N[C@@H](CC1CCCCC1)C(=O)N[C@@H](CC(N)=O)C(=O)N[C@@H](CC(C)C)C(=O)NC(C)(C)C(=O)N[C@H](C(=O)N[C@@H](CCCNC(=N)N)C(=O)N[C@@H](CCC(N)=O)C(=O)N[C@@H](CCCNC(=N)N)C(=O)N[C@@H](CC1CCCCC1)C(N)=O)[C@@H](C)O) [compound No. 111] |
